According to patent US20240301067A1 (WUXI BIOLOGICS IRELAND, published 2024):

Tests used:
Assay in all cases: SPR Biacore 8K; PD-1-hFc captured on anti-human Fc chip, VHH injected; 1:1 fit
[1] = molecular target: T1, Mouse PD-1 extracellular domain, hFc tag (mouse, UniProt Q02242 25-169)
T1 construct: extracellular domain; also called mPro1.ECD.hFc; not shown: human Fc tag at C-terminus
T1 sequence (looked up): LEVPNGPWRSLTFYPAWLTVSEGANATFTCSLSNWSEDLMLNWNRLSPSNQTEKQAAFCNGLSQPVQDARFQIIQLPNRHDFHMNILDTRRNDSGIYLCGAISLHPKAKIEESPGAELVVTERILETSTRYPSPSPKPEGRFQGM
Experimental: (§1) To screen WBP3056 VHH antibodies from affinity maturation, koff to hPro1.ECD.hFc, mPro1.ECD.hFc and cynoPro1.ECD.hFc (AcrobioSystems) was detected by SPR assay using Biacore 8K. hPro1.ECD.hFc, mPro1.ECD.hFc or cynoPro1.ECD.hFc (AcrobioSystems) was captured on an anti-human IgG Fc antibody immobilized CM5 sensor chip. Each VHH antibody was injected over the sensor chip at a flow rate of 30 uL/min for an association phase of 120 s, followed by 150 s dissociation. The association and dissociation curve was fit to a 1:1 model using Langmuir analysis.

[2] = molecular target: T2, Human PD-1 extracellular domain, hFc tag (human, UniProt Q15116 25-170)
T2 construct: extracellular domain; also called hPro1.ECD.hFc; not shown: human Fc tag at C-terminus
Experimental: as §1

[3] = molecular target: T3, Cynomolgus PD-1 extracellular domain, hFc tag (cynomolgus, UniProt B0LAJ3 25-170)
T3 construct: Bought; also called cynoPro1.ECD.hFc; cyno PD-1 ECD protein
Experimental: as §1

T3 sequence (B0LAJ3 entry or part of it limits assumed): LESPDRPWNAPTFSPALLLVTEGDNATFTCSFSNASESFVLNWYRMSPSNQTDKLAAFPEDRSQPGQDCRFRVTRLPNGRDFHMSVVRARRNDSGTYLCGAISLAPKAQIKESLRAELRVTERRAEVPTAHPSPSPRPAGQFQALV
T2 sequence (Q15116 25-170): as the sequence (B0LAJ3 entry or part of it limits assumed) above, with E2D, A10P, L19V, A35T, R75Q, A144T counted along it

| Binder | Kd [1] | koff [1] | kon [1] | Kd [2] | koff [2] | kon [2] | Kd [3] | koff [3] | kon [3] |
| --- | --- | --- | --- | --- | --- | --- | --- | --- | --- |
| AP17R1-2H2-Z1 (VHH, also called the humanized AP17R1-2H2; not shown: his- and c-Myc-tag from vector pETbac) VHH: QVQLVESGGGVVQPGGSLRLSCAASDSIDSLVNMGWYRQAPGKQRELVALIANYITHYADFVKGRFTISRDNSKNTLYLQMNSLRAEDTAVYYCYARNIIVDYWGQGTLVTVSS | 66.2 nM | 0.0136 s⁻¹ | 205000 M⁻¹ s⁻¹ | 12.7 nM | 0.00392 s⁻¹ | 307000 M⁻¹ s⁻¹ | 36.4 nM | 0.00863 s⁻¹ | 237000 M⁻¹ s⁻¹ |
| AP17R1-2H2-Z1-R1-14A1 (VHH, not shown: his- and c-Myc-tag from vector pETbac) VHH: QVQLVESGGGVVQPGGSLRLSCAASDSIDSLVNMGWYRQAPGKQRELVALIATYITHYADFVKGRFTISRDNSKNTLYLQMNSLRAEDTAVYYCYARNIIVDYWGQGTLVTVSS | 12.3 nM | 0.0047 s⁻¹ | 381000 M⁻¹ s⁻¹ | 2.06 nM | 0.00112 s⁻¹ | 543000 M⁻¹ s⁻¹ | 5.04 nM | 0.00213 s⁻¹ | 424000 M⁻¹ s⁻¹ |
| AP17R1-2H2-Z1-R1-6E1 (VHH, not shown: his- and c-Myc-tag from vector pETbac) VHH: QVQLVESGGGVVQPGGSLRLSCAASDSIDSMVNMGWYRQAPGKQRELVALIANYITHYADFVKGRFTISRDNSKNTLYLQMNSLRAEDTAVYYCYARNIIVDYWGQGTLVTVSS | 50.8 nM | 0.0146 s⁻¹ | 287000 M⁻¹ s⁻¹ | 7.48 nM | 0.00328 s⁻¹ | 439000 M⁻¹ s⁻¹ | 22.1 nM | 0.00754 s⁻¹ | 341000 M⁻¹ s⁻¹ |
| AP17R1-2H2-Z1-R1-14B3 (VHH, not shown: his- and c-Myc-tag from vector pETbac) VHH: QVQLVESGGGVVQPGGSLRLSCAASDSIDSLVNMGWYRQAPGKQRELVALIARYITHYADFVKGRFTISRDNSKNTLYLQMNSLRAEDTAVYYCYARNIIVDYWGQGTLVTVSS | 17.3 nM | 0.00596 s⁻¹ | 344000 M⁻¹ s⁻¹ | 5.09 nM | 0.00249 s⁻¹ | 489000 M⁻¹ s⁻¹ | 13.2 nM | 0.00484 s⁻¹ | 366000 M⁻¹ s⁻¹ |
| AP17R1-2H2-Z1-R1-14F3 (VHH, not shown: his- and c-Myc-tag from vector pETbac) VHH: QVQLVESGGGVVQPGGSLRLSCAASDSIDSLVNMGWYRQAPGKQRELVALIAWYITHYADFVKGRFTISRDNSKNTLYLQMNSLRAEDTAVYYCYARNIIVDYWGQGTLVTVSS | 27.1 nM | 0.00732 s⁻¹ | 270000 M⁻¹ s⁻¹ | 2.35 nM | 0.00109 s⁻¹ | 465000 M⁻¹ s⁻¹ | 7.18 nM | 0.00247 s⁻¹ | 344000 M⁻¹ s⁻¹ |
| AP17R1-2H2-Z1-R1-4D8 (VHH, not shown: his- and c-Myc-tag from vector pETbac) VHH: QVQLVESGGGVVQPGGSLRLSCAASDSIQSLVNMGWYRQAPGKQRELVALIANYITHYADFVKGRFTISRDNSKNTLYLQMNSLRAEDTAVYYCYARNIIVDYWGQGTLVTVSS | 33.7 nM | 0.00955 s⁻¹ | 284000 M⁻¹ s⁻¹ | 9.49 nM | 0.00396 s⁻¹ | 417000 M⁻¹ s⁻¹ | 26 nM | 0.00833 s⁻¹ | 320000 M⁻¹ s⁻¹ |
| AP17R1-2H2-Z1-R1-4B2 (VHH, not shown: his- and c-Myc-tag from vector pETbac) VHH: QVQLVESGGGVVQPGGSLRLSCAASDSISSLVNMGWYRQAPGKQRELVALIANYITHYADFVKGRFTISRDNSKNTLYLQMNSLRAEDTAVYYCYARNIIVDYWGQGTLVTVSS | 34.6 nM | 0.0101 s⁻¹ | 292000 M⁻¹ s⁻¹ | 9.19 nM | 0.00413 s⁻¹ | 450000 M⁻¹ s⁻¹ | 25.5 nM | 0.00879 s⁻¹ | 345000 M⁻¹ s⁻¹ |
| AP17R1-2H2-Z1-R1-27A2 (VHH, not shown: his- and c-Myc-tag from vector pETbac) VHH: QVQLVESGGGVVQPGGSLRLSCAASDSIDSLVNMGWYRQAPGKQRELVALIANYITHYADFVKGRFTISRDNSKNTLYLQMNSLRAEDTAVYYCYARSIIVDYWGQGTLVTVSS | 33.7 nM | 0.00894 s⁻¹ | 265000 M⁻¹ s⁻¹ | 8.56 nM | 0.00331 s⁻¹ | 387000 M⁻¹ s⁻¹ | 24.6 nM | 0.00745 s⁻¹ | 302000 M⁻¹ s⁻¹ |
| AP17R1-2H2-Z1-R1-29B6 (VHH, not shown: his- and c-Myc-tag from vector pETbac) VHH: QVQLVESGGGVVQPGGSLRLSCAASDSIDSLVNMGWYRQAPGKQRELVALIANYITHYADFVKGRFTISRDNSKNTLYLQMNSLRAEDTAVYYCYARNIYVDYWGQGTLVTVSS | 39.1 nM | 0.0108 s⁻¹ | 277000 M⁻¹ s⁻¹ | 7.01 nM | 0.00298 s⁻¹ | 425000 M⁻¹ s⁻¹ | 20 nM | 0.00646 s⁻¹ | 323000 M⁻¹ s⁻¹ |
| AP17R1-2H2-Z1-R1-30D3 (VHH, not shown: his- and c-Myc-tag from vector pETbac) VHH: QVQLVESGGGVVQPGGSLRLSCAASDSIDSLVNMGWYRQAPGKQRELVALIANYITHYADFVKGRFTISRDNSKNTLYLQMNSLRAEDTAVYYCYARNIIEDYWGQGTLVTVSS | 42.5 nM | 0.0118 s⁻¹ | 277000 M⁻¹ s⁻¹ | 6.79 nM | 0.00282 s⁻¹ | 416000 M⁻¹ s⁻¹ | 19.2 nM | 0.00624 s⁻¹ | 325000 M⁻¹ s⁻¹ |
| AP17R1-2H2-Z1-R1-14F1 (VHH, not shown: his- and c-Myc-tag from vector pETbac) VHH: QVQLVESGGGVVQPGGSLRLSCAASDSIDSLVNMGWYRQAPGKQRELVALIAYYITHYADFVKGRFTISRDNSKNTLYLQMNSLRAEDTAVYYCYARNIIVDYWGQGTLVTVSS | 7.8 nM | 0.00218 s⁻¹ | 280000 M⁻¹ s⁻¹ | 3.28 nM | 0.00135 s⁻¹ | 411000 M⁻¹ s⁻¹ | 8.98 nM | 0.00277 s⁻¹ | 309000 M⁻¹ s⁻¹ |
| AP17R1-2H2-Z1-R1-29B2 (VHH, not shown: his- and c-Myc-tag from vector pETbac) VHH: QVQLVESGGGVVQPGGSLRLSCAASDSIDSLVNMGWYRQAPGKQRELVALIANYITHYADFVKGRFTISRDNSKNTLYLQMNSLRAEDTAVYYCYARNIRVDYWGQGTLVTVSS | 55.8 nM | 0.0148 s⁻¹ | 264000 M⁻¹ s⁻¹ | 8.54 nM | 0.00347 s⁻¹ | 406000 M⁻¹ s⁻¹ | 25.7 nM | 0.00817 s⁻¹ | 318000 M⁻¹ s⁻¹ |
